What was measured:
[1] = biological target: synthetic fusion peptide (SARS-CoV-2 spike residues 808-833) (SARS-CoV-2), P0DTC2; assay: ELISA, coated antigen, mAb titrated
[2] = biological target: synthetic stem helix peptide (SARS-CoV-2 spike residues 1140-1164) (SARS-CoV-2), P0DTC2; assay: ELISA, peptide adsorbed on the plate, mAb titrated

B1: COV44-79 (antibody)
chain 1: QVQLVESGGGVVQPGRSLRLSCAASGLTFSGYAMHWVRQAPGKGLEWVAVISRDARNKYYADSVKGRFTISRDNSKKTVYLEMNSLRVEDTAVYYCAILIIPGITEPGSPDALDIWGQGTMVSVSS
chain 2: DIQMTQSPSSMSASVGDRVTITCRASQDISKWLAWYQQRPGKAPKLLIYAASSLQSGVPSRFSGSGSGTDFTLTISSLQPEDFATYYCQQASSFPWSITFGQGTRLEIR
- EC50 (read off the curve) [1]: 0.7 µg/mL

B2: Cov89-22 (antibody)
chain 1: QEQLVQSGAEVKKPGASVKVSCKSSGFTFSYFYLHWVRQAPGQGLEWMGIINPRGDGTRYAQKFQGRVTMTRDASTGTLYMELRSLRSEDTAVYYCARGADHGAFDIWGQGTMVTVSS
chain 2: EIVLTQSPGTLSLSPGERATLSCRASQSVRRNYFAWYQQKRGQAPRLLIYDASTRATGIPDRFSGSGSGTDFTLTISRLEPEDFAVYYCQQYDSSPPMYIFGQGTKLEIK
- EC50 (read off the curve) [2]: 0.02 µg/mL

B3: Cov30-14 (antibody)
chain 1: QVQLVQSGAEVKKPGASVKVSCQTSGYTFTSYYMHWVRQAPGQGLEWMGLITPSGDDTYYAQRFQGRVTMTRDTSTSPTYMELSSLTSEDTAVYYCAKMSRAGGFDVWGQGTLVTVSS
chain 2: EVVLTQSPGTLSLSPGERATLSCRASQSITGRYLAWYQQKPGQAPRLLMYGESSRVTGIPDRFSGGGSGTDFTLTISRLEPEDFAVYYCQHFASSPPTYTFGQGTKLEIR
- EC50 (read off the curve) [2]: 0.03 µg/mL
